{
  "source": "paper PMC5737657",
  "about": "(Nucleic Acids Research, 2017)",
  "proteins": {"B1": {"name": "VapC26 toxin with N-terminal (His)6 tag (native, co-expressed with VapB26) (natural protein)", "chain": "MIIDTSALLAYFDAAEPDHAAVSECIDSSADALVVSPYVVAELDYLVATRVGVDAELAVLRELAGGAWELANCGAAEIEQAARIVTKYQDQRIGIADAANVVLADRYRTRTILTLDRRHFSALRPIGGGRFTVIP"}},
  "target": "the molecule itself",
  "assay": "crystal structure",
  "data": [
    {"protein": "B1", "values": [
      {"measurement": "binding result", "value": "binds"}
    ]}
  ]
}
